In patent publication US20100015644A1:

Columns and labels:
[1] = molecular target: FcγRIIIaECD176VHis batch 646-005-EP (CHO-K1SV derived) (human) (UniProt P08637); experiment: ELISA; FcγRIIIa176V directly coated or captured by anti-polyhistidine mAb
[2] = molecular target: CD4 on CD4+ T cells (human) (UniProt P01730); experiment: cell-based or functional assay
[3] = molecular target: FcγRIIIaECD176VHis (HEK-293F, prepared as in Example 4) (human) (UniProt P08637); experiment: AlphaScreen bridging assay: His-tagged FcγRIIIa176V on Ni-acceptor beads and sCD4-biotine on SA-donor beads; signal needs binding to both
Sequence of FcγRIIIaECD176VHis (HEK-293F, prepared as in Example 4) (human) (P08637 other isoform, or with tags, fused parts or gaps limits assumed): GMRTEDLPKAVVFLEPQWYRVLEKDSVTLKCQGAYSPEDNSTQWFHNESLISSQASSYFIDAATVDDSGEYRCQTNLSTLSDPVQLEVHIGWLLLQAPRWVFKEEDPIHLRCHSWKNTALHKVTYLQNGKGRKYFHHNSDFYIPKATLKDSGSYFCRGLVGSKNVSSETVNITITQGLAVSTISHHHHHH

[4] = molecular target: Fc receptor on NK cells (effector cells of the ADCC assay) (human) (UniProt P08637); experiment: cell-based or functional assay
Sequence of Fc receptor on NK cells (effector cells of the ADCC assay) (human) (P08637 17-254): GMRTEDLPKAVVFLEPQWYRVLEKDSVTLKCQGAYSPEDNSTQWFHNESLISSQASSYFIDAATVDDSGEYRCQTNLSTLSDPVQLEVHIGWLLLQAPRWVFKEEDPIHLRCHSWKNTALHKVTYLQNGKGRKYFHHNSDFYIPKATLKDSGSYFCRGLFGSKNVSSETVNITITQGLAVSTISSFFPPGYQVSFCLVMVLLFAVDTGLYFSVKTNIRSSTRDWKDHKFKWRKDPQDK

[5] = molecular target: FcγRIIIaECD176VHis (HEK-293F, prepared as in Example 4) (human) (UniProt P08637); experiment: ELISA, plate-bound FcγRIIIa176V; relative potency from EC50
sCD4 = sCD4 (UniProt P01730); experiment: ELISA, plate-bound sCD4 2.0 µg/ml; relative potency from EC50

Sequence of FcγRIIIaECD176VHis batch 646-005-EP (CHO-K1SV derived) (human) (P08637 other isoform, or with tags, fused parts or gaps limits assumed): as the sequence (P08637 other isoform, or with tags, fused parts or gaps limits assumed) above

| Substance | binding capacity (% of the reference batch) (% of reference batch MRS-CD4-001) [3] | Relative potency (ADCC), Exp 1 (relative to MRS-CD4-001) [4] | Relative potency (ADCC), Exp 2 (relative to MRS-CD4-001) [4] | Relative potency (ADCC), Exp (third) (relative to MRS-CD4-001) [4] | Relative potency (ADCC), mean (relative to MRS-CD4-001) [4] | relative potency (FcγRIIIa176V binding), Exp 1 (relative to MRS-CD4-001) [5] | relative potency (FcγRIIIa176V binding), Exp 2 (relative to MRS-CD4-001) [5] | relative potency (FcγRIIIa176V binding), mean (relative to MRS-CD4-001) [5] | relative potency (sCD4 binding), Exp 1 (relative to MRS-CD4-001) (sCD4) | relative potency (sCD4 binding), Exp 2 (relative to MRS-CD4-001) (sCD4) | relative potency (sCD4 binding), mean (relative to MRS-CD4-001) (sCD4) | other results |
| --- | --- | --- | --- | --- | --- | --- | --- | --- | --- | --- | --- | --- |
| HuMax-EGFr (antibody) |  |  |  |  |  |  |  |  |  |  |  | EC50 ratio of the two HuMax-EGFr batches [1]: 2 |
| zanolimumab (batch not stated) (antibody) |  |  |  |  |  |  |  |  |  |  |  | reduction of the level of CD4 expression after 18-24 h (flow cytometry with non-competing anti-CD4) [2]: 50 to 80% |
| zanolimumab batch BN078 (antibody) | 89 |  |  |  |  |  |  |  |  |  |  |  |
| zanolimumab batch BO118 (antibody) | 88 |  |  |  |  |  |  |  |  |  |  |  |
| zanolimumab batch MEV005 (antibody) | 84 |  |  |  |  |  |  |  |  |  |  |  |
| zanolimumab batch MOCK-GMP#3-CD4 (sham-de-glycosylated) (antibody) |  | 1.38 | 1.55 | 1.42 | 1.45 | 1.23 | 1.23 | 1.23 | 0.98 | 0.85 | 0.92 | Relative potency (ADCC), relative to batch GMP#3 (relative to GMP#3) [4]: 1.17; relative potency (FcγRIIIa176V binding), related to parent batch GMP#3 (relative to GMP#3) [5]: 1.09 |
| zanolimumab batch MOCK-MRS-CD4 (sham-deglycosylated) (antibody) | 81 |  |  |  |  |  |  |  |  |  |  |  |
| zanolimumab batch UNG-GMP#3-CD4 (de-glycosylated) (antibody) |  |  |  |  |  |  |  |  | 0.96 | 1.01 | 0.99 |  |
| zanolimumab mixed batch M50-GMP#3-CD4 (antibody) |  | 0.14 | 0.64 | 0.39 | 0.39 | 0.5 | 0.6 | 0.55 | 1.03 | 0.9 | 0.97 | Relative potency (ADCC), relative to batch GMP#3 (relative to GMP#3) [4]: 0.31; relative potency (FcγRIIIa176V binding), related to parent batch GMP#3 (relative to GMP#3) [5]: 0.49 |
| zanolimumab mixed batch M50-MRS-CD4 (antibody) | 53 |  |  |  |  |  |  |  |  |  |  |  |

Continued, in another order:

| binding capacity (% of the reference batch) (% of reference batch MRS-CD4-001) [3] | Relative potency (ADCC), Exp 1 (relative to MRS-CD4-001) [4] | Relative potency (ADCC), Exp 2 (relative to MRS-CD4-001) [4] | Relative potency (ADCC), Exp (third) (relative to MRS-CD4-001) [4] | Relative potency (ADCC), mean (relative to MRS-CD4-001) [4] | relative potency (FcγRIIIa176V binding), Exp 1 (relative to MRS-CD4-001) [5] | relative potency (FcγRIIIa176V binding), Exp 2 (relative to MRS-CD4-001) [5] | relative potency (FcγRIIIa176V binding), mean (relative to MRS-CD4-001) [5] | relative potency (sCD4 binding), Exp 1 (relative to MRS-CD4-001) (sCD4) | relative potency (sCD4 binding), Exp 2 (relative to MRS-CD4-001) (sCD4) | relative potency (sCD4 binding), mean (relative to MRS-CD4-001) (sCD4) | Substance | other results |
| --- | --- | --- | --- | --- | --- | --- | --- | --- | --- | --- | --- | --- |
|  | 0.98 | 1.3 | 1.45 | 1.24 | 1.12 | 1.12 | 1.12 | 0.91 | 0.92 | 0.92 | zanolimumab batch GMP#3 (antibody) | Relative potency (ADCC), relative to batch GMP#3 (relative to GMP#3) [4]: 1; relative potency (FcγRIIIa176V binding), related to parent batch GMP#3 (relative to GMP#3) [5]: 1 |
|  | 1 | 1 | 1 | 1 | 1 | 1 | 1 | 1 | 1 | 1 | zanolimumab batch MRS-CD4-001 (antibody) |  |
| 75 |  |  |  |  |  |  |  |  |  |  | zanolimumab mixed batch M90-MRS-CD4 (antibody) | relative potency (relative to MRS-CD4-001) [5]: 0.7 |
